{"source": "paper PMC2988979", "about": "(Nature structural & molecular biology, 2010)", "binders": {"B1": {"name": "GST-tagged ASF1B (natural protein)", "chain": "MAKVSVLNVAVLENPSPFHSPFRFEISFECSEALADDLEWKIIYVGSAESEEFDQILDSVLVGPVPAGRHMFVFQADAPNPSLIPETDAVGVTVVLITCTYHGQEFIRVGYYVNNEYLNPELRENPPMKPDFSQLQRNILASNPRVTRFHINWDNNMDRLEAIETQDPSLGCGLPLNCTPIKGLGLPGCIPGLLPENSMDCI"}}, "molecular_target": "recombinant HAT1 holoenzyme (HAT1 and RbAp46) (UniProt O14929;Q16576)", "sequence (O14929 whole entry, chain 1 of 2)": "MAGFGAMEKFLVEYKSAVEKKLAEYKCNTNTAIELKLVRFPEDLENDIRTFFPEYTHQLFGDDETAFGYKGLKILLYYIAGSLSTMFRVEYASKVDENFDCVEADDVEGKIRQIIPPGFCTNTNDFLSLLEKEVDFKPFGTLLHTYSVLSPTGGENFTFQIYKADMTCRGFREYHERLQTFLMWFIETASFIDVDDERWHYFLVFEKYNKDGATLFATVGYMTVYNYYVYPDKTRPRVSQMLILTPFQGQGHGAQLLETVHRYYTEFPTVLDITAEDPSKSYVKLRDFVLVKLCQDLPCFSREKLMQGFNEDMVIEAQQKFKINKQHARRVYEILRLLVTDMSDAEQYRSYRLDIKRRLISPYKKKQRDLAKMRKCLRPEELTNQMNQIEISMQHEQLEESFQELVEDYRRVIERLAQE", "sequence (Q16576 whole entry, chain 2 of 2)": "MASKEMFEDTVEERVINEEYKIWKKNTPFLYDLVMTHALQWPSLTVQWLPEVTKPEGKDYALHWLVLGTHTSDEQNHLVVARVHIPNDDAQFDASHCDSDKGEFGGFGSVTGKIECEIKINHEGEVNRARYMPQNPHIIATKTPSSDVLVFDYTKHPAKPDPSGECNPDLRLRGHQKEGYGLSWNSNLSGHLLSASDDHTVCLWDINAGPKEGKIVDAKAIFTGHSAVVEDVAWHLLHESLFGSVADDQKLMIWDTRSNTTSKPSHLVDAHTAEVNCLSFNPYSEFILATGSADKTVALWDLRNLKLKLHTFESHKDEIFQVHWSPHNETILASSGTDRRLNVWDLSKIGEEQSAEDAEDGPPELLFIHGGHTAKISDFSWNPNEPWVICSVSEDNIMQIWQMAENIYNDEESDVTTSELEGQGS", "assay": "pull-down"}
{"binder": "B1", "values": [{"measurement": "binding result", "value": "binds"}]}
